In experiment [1] the target is T1, human LGR6 (leucine-rich repeat containing, G protein-coupled receptor 6) with a Flag-tag at the N-terminus, … (human, UniProt Q9HBX8-3 25-967).
T1 construct: human LGR6, predicted mature form AA25-967 of NP_001017403; The CD8 signal peptide replaces LGR6's own; also called Flag-LGR6; LGR6 WT; source: HEK293T cells, transiently transfected (reporter assays); not shown: Flag, N-terminal, kept
T1 sequence (looked up): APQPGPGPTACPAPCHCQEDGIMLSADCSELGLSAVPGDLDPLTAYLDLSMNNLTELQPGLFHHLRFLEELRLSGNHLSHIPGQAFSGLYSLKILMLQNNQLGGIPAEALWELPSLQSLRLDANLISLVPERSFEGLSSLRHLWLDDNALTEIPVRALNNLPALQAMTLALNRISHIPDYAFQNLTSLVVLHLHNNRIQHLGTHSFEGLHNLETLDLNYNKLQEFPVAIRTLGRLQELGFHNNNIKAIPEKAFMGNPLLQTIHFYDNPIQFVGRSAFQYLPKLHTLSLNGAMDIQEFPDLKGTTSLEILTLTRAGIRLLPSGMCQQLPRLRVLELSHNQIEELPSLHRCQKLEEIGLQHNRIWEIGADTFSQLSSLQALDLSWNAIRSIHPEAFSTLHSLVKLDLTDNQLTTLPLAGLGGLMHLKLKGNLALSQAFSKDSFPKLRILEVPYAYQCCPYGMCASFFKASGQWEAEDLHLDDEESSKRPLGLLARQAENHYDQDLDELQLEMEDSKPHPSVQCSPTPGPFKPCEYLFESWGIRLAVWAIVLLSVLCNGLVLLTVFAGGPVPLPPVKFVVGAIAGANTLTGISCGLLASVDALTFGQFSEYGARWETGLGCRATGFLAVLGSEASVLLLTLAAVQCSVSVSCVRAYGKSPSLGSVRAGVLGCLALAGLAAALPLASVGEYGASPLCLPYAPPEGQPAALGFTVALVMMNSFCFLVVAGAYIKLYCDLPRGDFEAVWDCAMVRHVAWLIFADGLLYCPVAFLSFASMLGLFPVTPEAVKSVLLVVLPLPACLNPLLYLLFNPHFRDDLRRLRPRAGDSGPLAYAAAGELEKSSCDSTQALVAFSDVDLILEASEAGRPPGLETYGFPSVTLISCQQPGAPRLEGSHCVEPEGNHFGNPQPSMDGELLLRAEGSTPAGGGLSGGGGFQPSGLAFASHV
The experiment can be described thus: whole-cell-based competition binding assay; HEK293 cells stably expressing Flag-LGR6 incubated with mRSPO1-Fc plus serial dilutions of purified recombinant RSPO1–4; maximum specific binding is the difference with and without mRSPO1-Fc. Particulars: one partner purified.

For experiment [2], the target named is T1, human LGR6 (leucine-rich repeat …). The experiment can be described thus: cell-based or functional assay.

By IC50 is commonly meant the concentration at which inhibition is half-maximal.

B1: purified recombinant R-spondin 4 (ligand, UniProt Q2I0M5 20-234, looked up)
chain: LNRRKKQVGTGLGGNCTGCIICSEENGCSTCQQRLFLFIRREGIRQYGKCLHDCPPGYFGIRGQEVNRCKKCGATCESCFSQDFCIRCKRQFYLYKGKCLPTCPPGTLAHQNTRECQGECELGPWGGWSPCTHNGKTCGSAWGLESRVREAGRAGHEEAATCQVLSESRKCPIQRPCPGERSPGQKKGRKDRRPRKDRKLDRRLDVRPRQPGLQP
notes: R-spondin 4 (RSPO4); also called RSPO4; source: purified recombinant
As to B1, the IC50 in experiment [1] amounted to 7 nM.

B2: purified recombinant R-spondin 1 (ligand, UniProt Q2MKA7 21-263, looked up)
chain: SRGIKGKRQRRISAEGSQACAKGCELCSEVNGCLKCSPKLFILLERNDIRQVGVCLPSCPPGYFDARNPDMNKCIKCKIEHCEACFSHNFCTKCKEGLYLHKGRCYPACPEGSSAANGTMECSSPAQCEMSEWSPWGPCSKKQQLCGFRRGSEERTRRVLHAPVGDHAACSDTKETRRCTVRRVPCPEGQKRRKGGQGRRENANRNLARKESKEAGAGSRRRKGQQQQQQQGTVGPLTSAGPA
notes: R-spondin 1 (RSPO1); also called RSPO1; source: purified recombinant
B2: the “Super TOPflash β-catenin reporter in HEK293T cells transfected with LGR6 or vector, serial dilutions of RSPO1 with Wnt3a CM: gain in potency of RSPO1” value in experiment [2] was ~30 fold. The IC50 in experiment [1] turned out to be 3.3 nM.

B3: purified recombinant R-spondin 3 (ligand, UniProt Q9BXY4 22-272, looked up)
chain: QNASRGRRQRRMHPNVSQGCQGGCATCSDYNGCLSCKPRLFFALERIGMKQIGVCLSSCPSGYYGTRYPDINKCTKCKADCDTCFNKNFCTKCKSGFYLHLGKCLDNCPEGLEANNHTMECVSIVHCEVSEWNPWSPCTKKGKTCGFKRGTETRVREIIQHPSAKGNLCPPTNETRKCTVQRKKCQKGERGKKGRERKRKKPNKGESKEAIPDSKSLESSKEIPEQRENKQQQKKRKVQDKQKSVSVSTVH
notes: R-spondin 3 (RSPO3); also called RSPO3; source: purified recombinant
Turning to B3, the half-maximal inhibitory concentration (IC50) in experiment [1] is 1.7 nM.

B4: purified recombinant R-spondin 2 (ligand, UniProt Q6UXX9 22-243, looked up)
chain: QGNRWRRSKRASYVSNPICKGCLSCSKDNGCSRCQQKLFFFLRREGMRQYGECLHSCPSGYYGHRAPDMNRCARCRIENCDSCFSKDFCTKCKVGFYLHRGRCFDECPDGFAPLEETMECVEGCEVGHWSEWGTCSRNNRTCGFKWGLETRTRQIVKKPVKDTILCPTIAESRRCKMTMRHCPGGKRTPKAKEKRNKKKKRKLIERAQEQHSVFLATDRANQ
notes: R-spondin 2 (RSPO2); also called RSPO2; source: purified recombinant
Take B4: the IC50 in experiment [1] stood at 0.5 nM.

The values are drawn from paper PMC3355120, “LGR6 Is a High Affinity Receptor of R-Spondins and Potentially Functions as a Tumor Suppressor” (PLoS ONE, 2012).
